Test results taken from patent publication US12448434B2, “Antibodies specifically recognizing Pseudomonas PcrV and uses thereof” (priority 2019, dated 2025).
Substitutions are numbered along the chain they refer to.

How the values were obtained:
[1] = test system: PcrV mutants (with mutations at position 225); assay: Binding to PcrV mutants with mutations at position 225; parameters: species or system Pseudomonas aeruginosa; settings: data not shown
Method: To further illustrate the optimized antibodies could broadly neutralize P. aeruginosa strains, the abilities of these antibodies to bind various forms of PcrV mutants were tested. Briefly, 100 PcrV sequences were randomly selected from Genebank database. In contrast to the wild type sequence as shown in SEQ ID No: 71, 13% of the selected sequences contained R, G, or K at position 225 (as compared of S in the wild type sequence SEQ No: 71), which was the main mutation around the epitope of 7B1.
These findings further illustrate that the optimized anti-PcrV antibodies could neutralize a broad spectrum of P. aeruginosa strains, which might express various forms of PcrV mutants.

[2] = test system: P. aeruginosa (PA103 strain); assay: Prophylactic mouse acute pneumonia model, survival; format: in vivo, BALB/c mice; settings: i.p. 24 h before infection, 1 or 10 mg/kg; 1*LD90 or 2*LD90; 7 days
Method: The candidate anti-PcrV antibodies were assayed for the ability to improve survival in a mouse acute pneumonia model. In a prophylactic model, 7-8 week old BALB/c mice (Vital River Laboratory) were administered the candidate antibodies or PBS intraperitoneally (i.p.) 24 hr before infection, at doses of 1, 5, 10 or 25 mg/kg mouse weight. […] Mouse survival was recorded for up to 7 days post-infection.
In a prophylactic model, 7-8 week old BALB/c mice (Vital River Laboratory) were administered with antibodies intraperitoneally (i.p.) 24 h before infection, at doses of 1 or 10 mg/kg mouse weight. […] Mouse survival was recorded for up to 7 days post-infection. The results were represented as Kaplan-Meier survival curves.

[3] = test system: P. aeruginosa (PA103 strain); assay: Prophylactic mouse acute pneumonia model, organ burden; format: in vivo, BALB/c mice; settings: 10 mg/kg i.p. 24 hr before infection; 0.5*LD90; FIG. 8B
Method: In a prophylactic model, 7-8 week old BALB/c mice (Vital River Laboratory) were administered with antibodies or PBS intraperitoneally (i.p.) 24 hr before infection, at 10 mg/kg mouse weight. To induce acute pneumonia, the BALB/c mice were intranasally inoculated with P. aeruginosa (PA103 strain) suspended in a 40 μl inoculum at half the lethal dose (0.5*LD90; 3×10^5 CFU). 24 hours post-infection, mice were euthanized, where the lungs, spleens and kidneys were extracted, homogenized and diluted before plating on agar to measure the viable bacteria units (in CFU), which represented the P. aeruginosa burden in the respective organ sample.

[4] = test system: P. aeruginosa (O6-57/66 strain); assay: Prophylactic mouse intraperitoneal infection model, survival; format: in vivo, BALB/c mice; settings: 5 mg/kg antibody dose i.p. 24 h before infection; 3*LD90; 5 days
Method: The ability of the optimized anti-PcrV antibodies 7C1, 7B1 and 8C1 to improve survival in a mouse intraperitoneal infection model was evaluated in comparison to parental 13-42 mAb. HIV-10E8 was used as negative control. The mouse intraperitoneal infection model was generated as described previously (See Warrener et al., 2014, Antimicrob. Agents Chemother., 58, 4384-4391).
In a prophylactic model, 7-8 week old BALB/c mice (Vital River Laboratory) were administered antibodies by intraperitoneal (i.p.) injection 24 h before infection, at doses of 5 or 25 mg/kg mouse weight. To induce intraperitoneal infection, the BALB/c mice were intraperitoneally inoculated with P. aeruginosa (O6-57/66 strain) suspended in a 300 μl inoculum at triple the lethal dose (3*LD90=7×10^5 CFU). Mouse survival was recorded for up to 5 days post-infection.

[5] = test system: P. aeruginosa (O6-57/66 strain); assay: Prophylactic acute pneumonia model in immunodeficient mice, survival; format: in vivo, BALB/c mice; settings: cyclophosphamide-immunosuppressed mice; 3.2 to 5 mg/kg i.p. 24 h before infection; 1*LD90; 10 days
Method: The ability of the optimized anti-PcrV antibodies 7C1, 7B1 and 8C1 to improve survival for acute pneumonia model in immunodeficient mice was evaluated in comparison to parental 13-42. HIV-10E8 was used as negative control. The acute pneumonia model in immunodeficient mice model was generated as described previously (DiGiandomenico et al., 2014, Sci. Transl. Med., 6: 262ra155).
In a prophylactic model, to achieve immunosuppression, 7-8 week old BALB/c mice (Vital River Laboratory) were first administered 2 doses of 150 mg/kg of cyclophosphamide, at 4 days and 1 day before P. aeruginosa infection, to suppress white cell count. Antibodies were then administered intraperitoneally (i.p.) at 24 h before infection, at doses of 3.2 to 5 mg/kg mouse weight. To induce acute pneumonia, the BALB/c mice were intranasally inoculated with P. aeruginosa (O6-57/66 strain) suspended in a 40 μl inoculum at the lethal dose (1*LD90=[…]). Mouse survival was recorded for up to 10 days post-infection.

[6] = test system: P. aeruginosa (PA103 strain); assay: Mouse intraperitoneal infection model, antibody alone or combined with antibiotics, survival; format: in vivo, BALB/c mice; settings: antibody 5 mg/kg i.p. 24h before infection; 3*LD90; 5 days; FIG. 12A
Method: The ability of the optimized anti-PcrV antibody 7B1 or 8C1 to improve survival in mouse intraperitoneal infection model was evaluated in comparison to antibiotics Meropenem, Tobramycin, Ciprofloxacin; and also in comparison to combination treatment of 7B1 or 8C1 with either antibiotic. HIV-10E8 was used as negative control.
In a prophylactic model for anti-PcrV testing, 7-8 week old BALB/c mice (Vital River Laboratory) were intraperitoneally injected with antibody 24h before infection or with antibiotic 1h post infection. Specifically, the mice were administered with either optimized anti-PcrV antibody clone 7B1 or 8C1 (at 5 mg/kg), Meropenem (at 3 mg/kg), Tobramycin (at 10 mg/kg), Ciprofloxacin (at 30 mg/kg), or a combination of 7B1 or 8C1 with one of the antibiotics. To induce intraperitoneal infection, the BALB/c mice were intraperitoneally inoculated with P. aeruginosa (PA103 strain) suspended in a 300 μl inoculum at triple the lethal dose (3*LD90=7×10^5 CFU). Mouse survival was recorded for up to 5 days post-infection.

B1: 7B1: optimized anti-PcrV mAb clone; VH SEQ ID NO: 62, VL SEQ ID NO: 67 (antibody, V domains shown)
VH: EVQLLESGGGLVQPGGSLRLSCTASGFTFSDNYMSWVRQAPGKGLDWVSVISESGGSTNYADSVKGRFSTSRDNSKSTLYLDMNSLRAEDTAIYYCAKGRFSTLSSHFFRAVYGMDVWGQGTAVTVSS
VL: DIQLTQSPSSLSASVGDRVTITCRASQGISSYLAWYQQKPGKAPKLLIYAASTLQSGVPSRFSGSGSGTDFTLTISSLQPEDFATYYCQQLSSYPLTFGGGTKVEIK
In the case of B1, the “binding to PcrV mutants with R, G or K at position 225” value (from here on “binding to PcrV mutants with R”) [1] is reported as “strongly bind these mutants”, the “survival improvement relative to parental 13-42 mAb” value [2] is reported as “comparable or better survival improvements” and the “reduction of organ burden in the lung, spleen and kidney relative to HIV-10E8” value [3] is reported as “higher efficacy in reducing organ burden”. For the same molecule, the “reduction of organ burden in the lung, spleen and kidney relative to V2L2-MD” value [3] was “comparable efficacy in reducing organ burden”, the “survival improvement relative to parental 13-42 mAb” value [4] was “comparable or better survival improvement” and the “survival improvement / protection relative to parental 13-42 antibody” value [5] was “comparable or better protection than the parental 13-42 antibody”. The “survival improvement of antibody alone relative to Meropenem (3 mg/kg)” value [6] was “better or comparable survival improvement”.

B2: 7C1: optimized anti-PcrV mAb clone; VH SEQ ID NO: 52, VL SEQ ID NO: 65 (antibody, V domains shown)
VH: B1 VH with Y33H, V50G, L104S, F109Y
VL: B1 VL with T97S
For B2, the “binding to PcrV mutants with R” value [1] was “strongly bind these mutants”, the “survival improvement relative to parental 13-42 mAb” value [2] was “comparable or better survival improvements” and the “reduction of organ burden in the lung, spleen and kidney relative to HIV-10E8” value [3] was “higher efficacy in reducing organ burden”. For the same molecule, the “reduction of organ burden in the lung, spleen and kidney relative to V2L2-MD” value [3] was “comparable efficacy in reducing organ burden”, the “survival improvement relative to parental 13-42 mAb” value [4] was “comparable or better survival improvement” and the “survival improvement / protection relative to parental 13-42 antibody” value [5] was “better survival improvement than the parental 13-42 antibody”.

B3: 8C1: optimized anti-PcrV mAb clone; VH SEQ ID NO: 51, VL SEQ ID NO: 67 (antibody, V domains shown)
VH: B1 VH with Y33H, V50G, L104N, S106A
VL: B1 VL
B3 was tested, and the “binding to PcrV mutants with R” value [1] was “strongly bind these mutants”, the “reduction of organ burden in the lung, spleen and kidney relative to HIV-10E8” value [3] was “higher efficacy in reducing organ burden” and the “reduction of organ burden in the lung, spleen and kidney relative to V2L2-MD” value [3] was “comparable efficacy in reducing organ burden”. For the same molecule, the “survival improvement / protection relative to parental 13-42 antibody” value [5] was “comparable or better protection than the parental 13-42 antibody”.
